Measured values reported in paper PMC9034062, “Phospholipids alter activity and stability of mitochondrial membrane-bound ubiquitin ligase MARCH5” (Life Science Alliance, 2022).

Target: the molecule itself
Test: cross-linking; BS3 cross-linker added to 19.4 uM MARCH5 in 50 mM Hepes pH 7.7, 100 mM NaCl, 5% glycerol, 0.1 mM TCEP, 0.001% LMNG; without lipid (control) and with cardiolipin at 1:10 molar ratio of protein to lipid; samples at 0, 15, 30 and 60 min; SDS-PAGE

B1: MARCH5 (enzyme, human, UniProt Q9NX47 1-278, looked up)
chain: MPDQALQQMLDRSCWVCFATDEDDRTAEWVRPCRCRGSTKWVHQACLQRWVDEKQRGNSTARVACPQCNAEYLIVFPKLGPVVYVLDLADRLISKACPFAAAGIMVGSIYWTAVTYGAVTVMQVVGHKEGLDVMERADPLFLLIGLPTIPVMLILGKMIRWEDYVLRLWRKYSNKLQILNSIFPGIGCPVPRIPAEANPLADHVSATRILCGALVFPTIATIVGKLMFSSVNSNLQRTILGGIAFVAIKGAFKVYFKQQQYLRQAHRKILNYPEQEEA
notes: human MARCH5, cDNA codon-optimised for yeast (GenScript); Integral membrane protein, kept in the detergent LMNG; By the printed primers the TEV site is ENLYFQ/SQF, so ENLYFQ probably stays at the C-terminus after cleavage (surmised); also called M5; source: S. cerevisiae PAP1500, purified (DDM solubilisation, Ni resin with exchange to LMNG, TEV cleavage, reverse IMAC); not shown: yEGFP, …
B1: binds.
